Ends that are not written are not given here.

Test [1] addresses T1, rat CRF receptor, type 1 (rat, UniProt P35353). Kind of test: SPA competition with 0.05 nM [125I-Tyr0]h/rCRF, HEK-293 membranes; 95% CI (0.06-0.51).
Test [2] has as its target T1, rat CRF receptor, type 1. Kind of test: SPA competition with 0.05 nM [125I-Tyr0]h/rCRF, HEK-293 membranes; 95% CI (0.15-0.49).

The IC50 is the point on the concentration scale where inhibition reaches its midpoint. QGPPISIDLSLELLRKMIEIARAEKEKQQAANNRLLLDTI (ends and bridges not checked) [[Ala^21,23Arg^22]Svg]: the half-inhibitory concentration (IC50) in the test with rat CRF receptor, type 1 [1] was 0.29 nM.

In the test with rat CRF receptor, type 1 [2], QGPPISIDLSLELLRKMIEIAKQEKEKQQAANNRLLLDTI (ends and bridges not checked) [[Ala^21]Svg] showed an IC50 of 0.32 nM.

These data come from patent US20040049009A1, “Methods for improving the antagonistic/agonistic properties of peptidic antagonists/agonists of the corticotropin-releasing factor receptor (crfr)” (published 2004).
